Legend:
[1] = system: bone marrow derived mast cells (BMMC); experiment: Secretory response (β-hexosaminidase release) of bone marrow derived mast cells; type: cell-based, mouse
Description: Cells. Bone marrow derived mast cells (BMMC) were prepared from Balb/c mice as described by Nagao et al. (Science 212: 333-335, 1981). After 3 weeks, an approximately 95% pure mast cell population was obtained, showing high expression of FcεRI and stem cell factor receptor (c-kit), as measured by flow cytometry.
(§1) Secretory response of mast cells.
Similar experiments were carried out using bone-marrow derived mast cells (BMMC). […] The control peptide of the sequence DVSNYITR had no effect on either system.

[2] = system: rat peritoneal mast cells (RPMC); experiment: Secretory response (β-hexosaminidase release) of rat peritoneal mast cells; type: cell-based
Description: Rat peritoneal mast cells (RPMC) were isolated as previously described (Kim et al. J. Immunol. 162:4960-4965, […]). Mast cell preparations were ca. 95% pure, as evaluated by flow cytometric monitoring of FcεRI surface expression. Compound 48/80, a specific activator of serosal type mast cells elicited about 50% release of the total β-hexosaminidase content of the isolated rat peritoneal mast cells.
as §1
While mucosal type mast cells are non-responsive to peptidergic stimuli, the serosal type ones have been known for a long time to be stimulated by cationic secretagogues. The anaphylatoxic peptides C3a and C5a initiate the cells' secretory response by binding to their respective receptors expressed by serosal type mast cells. To investigate the effect of the peptides on this mast cell-type, RPMC were used. As expected, these cells did respond to both C5a and C3a (Table 2). However, degranulation was inhibited when peptides C3a7 or C3a9 were added to the IgE-sensitized RPMC and stimulated, 5 min later with a suboptimal antigen dose (Table 2).

FcεRI β-chain = biological target: T1, FcεRI β-chain (Mus musculus, UniProt P20490); experiment: Covalent cross linking of C3a to BMMC, immunoprecipitation and Western blot; type: binding; conditions: C3a 50 μg/ml, BS3 cross linker
T1 construct: endogenous in cells; host or cells: BMMC (bone marrow derived mast cells)
T1 sequence (P20490 1-235): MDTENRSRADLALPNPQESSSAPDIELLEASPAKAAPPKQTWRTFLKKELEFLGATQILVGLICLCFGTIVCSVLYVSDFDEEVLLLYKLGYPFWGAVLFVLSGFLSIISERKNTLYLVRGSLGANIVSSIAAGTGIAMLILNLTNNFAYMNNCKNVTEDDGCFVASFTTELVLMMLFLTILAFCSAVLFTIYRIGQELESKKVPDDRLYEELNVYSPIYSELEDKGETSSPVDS
T1 sequence (P20489 24-250 partner): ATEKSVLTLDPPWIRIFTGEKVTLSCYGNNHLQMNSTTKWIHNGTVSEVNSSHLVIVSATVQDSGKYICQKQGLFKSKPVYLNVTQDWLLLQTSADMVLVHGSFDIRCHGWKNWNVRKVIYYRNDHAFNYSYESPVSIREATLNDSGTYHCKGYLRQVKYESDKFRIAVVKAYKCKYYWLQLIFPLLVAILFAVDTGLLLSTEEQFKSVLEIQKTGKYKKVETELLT
T1 sequence (P20491 19-86 partner): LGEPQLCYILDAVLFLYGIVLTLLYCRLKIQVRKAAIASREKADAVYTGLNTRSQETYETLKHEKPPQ
Description: Covalent cross linking of C3a to BMMC. BMMC were washed and incubated with C3a (50 μg/ml per 15−20×10^6 cells/sample, in PBS) for 10 min at room temperature. After another incubation of 20 min at room temperature with 5 mM of the cross linking reagent bis-(sulphosuccinimidyl)-suberate (BS3, PIERCE, Ill., USA) cells were washed and lysed. Polyclonal rabbit antibodies specific to C3a (Behringwerke AG, Germany) were used for immunoprecipitation. Western blotting was carried out by an FcεRI β chain specific antibody kindly provided by Jean Pierre Kinet (Harvard University, Boston, USA). As secondary antibody, HRPO-conjugated goat anti-mouse IgG (DAKO, Frank Diagnosztika Kft, Hungary) was used. Detection was performed by ECL.
Covalent cross-linking of C3a to BMMC. Since no C3a-receptors could be detected on mucosal type mast cells, the possibility that the peptides exert their inhibitory effect via interaction with a different cell membrane component, probably the type 1 Fcε-receptor, was examined. […] Since the ITAM-bearing β-chain had earlier been reported to act as an amplifier of the FcεRI response, the interaction of C3a with this membrane protein on BMMC was determined. Cells were incubated with C3a followed by adding the covalent cross linking agent, BS^3-reagent. […] Protein samples were separated by SDS-PAGE and analyzed by Western-blotting, using FcεRI β-chain specific antibodies.

RBL-2H3 cells = conditions: Erdei et al. 1995, 1999; cited from earlier work
rat FcεRI β chain = rat FcεRI β chain (Rattus norvegicus, UniProt P13386); experiment: Surface plasmon resonance, immobilized extracellular loop peptides of rat FcεRI β chain; conditions: SPR
human FcεRI β chain = human FcεRI β chain (Homo sapiens, UniProt Q01362); experiment: Surface plasmon resonance, immobilized extracellular loop peptides of human FcεRI β chain; conditions: SPR

C3a: human complement component C3a, a 77-mer peptide (SEQ ID NO:1), isolated
Inhibition of IgE-mediated secretory response of BMMC [1]: found to inhibit | Stimulation of secretory response of RPMC by the peptide itself ([2]; non-sensitized cells, no antigen): did respond | Inhibitory effect (IC50) on the IgE-mediated degranulation of rat peritoneal mast cells (RPMC) ([2]; suboptimal antigen-dose): Activation* | Cross-linked complex with FcεRI β-chain on BMMC (FcεRI β-chain): covalent complex | Inhibition of IgE-mediated degranulation of RBL-2H3 cells (literature) (RBL-2H3 cells): inhibit | Interaction with the second extracellular loop of rat FcεRI β chain (rat FcεRI β chain): No interaction could be detected | Kd (rat FcεRI β chain; read-out: Kd, first extracellular loop of rat FcεRI β chain, koff/kon): 520 nM | Interaction with the second extracellular loop of human FcεRI β chain (human FcεRI β chain): No interaction could be detected | Kd (human FcεRI β chain; read-out: Kd, first extracellular loop of human FcεRI β chain, koff/kon): 250 nM
